From patent US20240409635A1 (VIBRANT PHARMA, published 2024) come the findings set out here.

The Kd is the equilibrium constant for the complex coming apart. For orientation: koff means the first-order rate constant of dissociation. Broadly, the kon is a measure of how fast the partners come together.

First the molecules themselves.
T1: recombinant human tumor antigen CEACAM-6 (ACRO systems, CE6-H5223) (human, UniProt P40199 35-320)
T1 construct: Bought
T1 sequence (looked up): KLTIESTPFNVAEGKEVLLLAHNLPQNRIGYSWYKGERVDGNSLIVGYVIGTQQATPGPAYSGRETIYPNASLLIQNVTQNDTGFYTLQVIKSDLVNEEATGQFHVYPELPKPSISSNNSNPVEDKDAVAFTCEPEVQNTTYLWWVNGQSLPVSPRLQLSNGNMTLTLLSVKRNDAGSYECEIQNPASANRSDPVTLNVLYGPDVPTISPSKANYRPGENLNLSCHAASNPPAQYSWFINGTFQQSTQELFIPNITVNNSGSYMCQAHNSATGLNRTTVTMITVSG

B1: unilateral CD3/CEA-CAM6/HER2 trispecific antibody 701 (other)
chain 1: EVKLLESGGGLVQPKGSLKLSCAASGFTFNTYAMNWVRQAPGKGLEWVARIRSKYNNYATYYADSVKDRFTISRDDSQSILYLQMNNLKTEDTAMYYCVRHGNFGNSYVSWFAYWGQGTLVTVSSASTKGPSVFPLAPCSRSTSESTAALGCLVKDYFPEPVTVSWNSGALTSGVHTFPAVLQSSGLYSLSSVVTVPSSSLGTKTYTCNVDHKPSNTKVDKRVESKYGPPCPPCPAPEAAGGPSVFLFPPKPKDTLMISRTPEVTCVVVDVSQEDPEVQFNWYVDGVEVHNAKTKPREEQFNSTYRVVSVLTVLHQDWLNGKEYKCKVSNKGLPSSIEKTISKAKGQPREPQVYTLPPCQEEMTKNQVSLWCLVKGFYPSDIAVEWESNGQPENNYKTTPPVLDSDGSFFLYSRLTVDKSRWQEGNVFSCSVMHEALHNHYTQKSLSLSL
chain 2: QVQLVQSGGGLVQAGGSLRLSCAASGRTFSSYAMAWFRQAPGKEREFVAAISWSGANIYVADSVKGRFTISRDNAKDTVYLQMNSLKPEDTAVYYCAVKLGFAPVEERQYDYWGQGTQVTVSSESKYGPPCPPCPAPEAAGGPSVFLFPPKPKDTLMISRTPEVTCVVVDVSQEDPEVQFNWYVDGVEVHNAKTKPREEQFNSTYRVVSVLTVLHQDWLNGKEYKCKVSNKGLPSSIEKTISKAKGQPREPQVCTLPPSQEEMTKNQVSLSCAVKGFYPSDIAVEWESNGQPENNYKTTPPVLDSDGSFFLVSRLTVDKSRWQEGNVFSCSVMHEALHNRFTQKSLSLSL
chain 3: QAVVTQESALTTSPGETVTLTCRSSTGAVTTSNYANWVQEKPDHLFTGLIGGTNKRAPGVPARFSGSLIGDKAALTITGAQTEDEAIYFCALWYSNLWVFGGGTKVEIKRTVAAPSVFIFPPSDEQLKSGTASVVCLLNNFYPREAKVQWKVDNALQSGNSQESVTEQDSKDSTYSLSSTLTLSKADYEKHKVYACEVTHQGLSSPVTKSFNRGECGGGGSGGGGSQVKLEESGGGLVQAGGSLRLSCRTSGRTNSVYTMGWFRQAPGKEREFVAQIMWGAGTNTHYADSVKGRFTISRDSAESTVYLQMNSLKPEDTAVYYCAANRGIPIAGRQYDYWGQGTQVTVSS
B2: unilateral CD3/CEA-CAM6/HER2 trispecific antibody 709 (other)
chain 1: B1 chain 1
chain 2: QVKLEESGGGLVQAGGSLRLSCRTSGRTNSVYTMGWFRQAPGKEREFVAQIMWGAGTNTHYADSVKGRFTISRDSAESTVYLQMNSLKPEDTAVYYCAANRGIPIAGRQYDYWGQGTQVTVSSESKYGPPCPPCPAPEAAGGPSVFLFPPKPKDTLMISRTPEVTCVVVDVSQEDPEVQFNWYVDGVEVHNAKTKPREEQFNSTYRVVSVLTVLHQDWLNGKEYKCKVSNKGLPSSIEKTISKAKGQPREPQVCTLPPSQEEMTKNQVSLSCAVKGFYPSDIAVEWESNGQPENNYKTTPPVLDSDGSFFLVSRLTVDKSRWQEGNVFSCSVMHEALHNRFTQKSLSLSL
chain 3: QVQLVQSGGGLVQAGGSLRLSCAASGRTFSSYAMAWFRQAPGKEREFVAAISWSGANIYVADSVKGRFTISRDNAKDTVYLQMNSLKPEDTAVYYCAVKLGFAPVEERQYDYWGQGTQVTVSSGGGGSGGGGSQAVVTQESALTTSPGETVTLTCRSSTGAVTTSNYANWVQEKPDHLFTGLIGGTNKRAPGVPARFSGSLIGDKAALTITGAQTEDEAIYFCALWYSNLWVFGGGTKVEIKRTVAAPSVFIFPPSDEQLKSGTASVVCLLNNFYPREAKVQWKVDNALQSGNSQESVTEQDSKDSTYSLSSTLTLSKADYEKHKVYACEVTHQGLSSPVTKSFNRGEC
B3: unilateral CD3/CEA-CAM6/HER2 trispecific antibody 703 (other)
chain 1: B1 chain 1
chain 2: B1 chain 2
chain 3: QVKLEESGGGLVQAGGSLRLSCRTSGRTNSVYTMGWFRQAPGKEREFVAQIMWGAGTNTHYADSVKGRFTISRDSAESTVYLQMNSLKPEDTAVYYCAANRGIPIAGRQYDYWGQGTQVTVSSGGGGSGGGGSQAVVTQESALTTSPGETVTLTCRSSTGAVTTSNYANWVQEKPDHLFTGLIGGTNKRAPGVPARFSGSLIGDKAALTITGAQTEDEAIYFCALWYSNLWVFGGGTKVEIKRTVAAPSVFIFPPSDEQLKSGTASVVCLLNNFYPREAKVQWKVDNALQSGNSQESVTEQDSKDSTYSLSSTLTLSKADYEKHKVYACEVTHQGLSSPVTKSFNRGEC
B4: unilateral CD3/CEA-CAM6/HER2 trispecific antibody 710 (other)
chain 1: B2 chain 2 with C254Y, S259C, S271W, A273L, V312Y, R340H, F341Y
chain 2: B1 chain 1 with Y354C, C359S, W371S, L373A, Y412V, H440R, Y441F
chain 3: B2 chain 3
B5: unilateral CD3/CEA-CAM6/HER2 trispecific antibody 711 (other)
chain 1: QVQLVQSGGGLVQAGGSLRLSCAASGRTFSSYAMAWFRQAPGKEREFVAAISWSGANIYVADSVKGRFTISRDNAKDTVYLQMNSLKPEDTAVYYCAVKLGFAPVEERQYDYWGQGTQVTVSSGGGGSGGGGSEVKLLESGGGLVQPKGSLKLSCAASGFTFNTYAMNWVRQAPGKGLEWVARIRSKYNNYATYYADSVKDRFTISRDDSQSILYLQMNNLKTEDTAMYYCVRHGNFGNSYVSWFAYWGQGTLVTVSSASTKGPSVFPLAPCSRSTSESTAALGCLVKDYFPEPVTVSWNSGALTSGVHTFPAVLQSSGLYSLSSVVTVPSSSLGTKTYTCNVDHKPSNTKVDKRVESKYGPPCPPCPAPEAAGGPSVFLFPPKPKDTLMISRTPEVTCVVVDVSQEDPEVQFNWYVDGVEVHNAKTKPREEQFNSTYRVVSVLTVLHQDWLNGKEYKCKVSNKGLPSSIEKTISKAKGQPREPQVYTLPPCQEEMTKNQVSLWCLVKGFYPSDIAVEWESNGQPENNYKTTPPVLDSDGSFFLYSRLTVDKSRWQEGNVFSCSVMHEALHNHYTQKSLSLSL
chain 2: B2 chain 2
chain 3: QAVVTQESALTTSPGETVTLTCRSSTGAVTTSNYANWVQEKPDHLFTGLIGGTNKRAPGVPARFSGSLIGDKAALTITGAQTEDEAIYFCALWYSNLWVFGGGTKVEIKRTVAAPSVFIFPPSDEQLKSGTASVVCLLNNFYPREAKVQWKVDNALQSGNSQESVTEQDSKDSTYSLSSTLTLSKADYEKHKVYACEVTHQGLSSPVTKSFNRGEC

Positions count from the first letter of the chain named.

For the first experiment, the target named is T1, recombinant human tumor antigen …. Kind of experiment: BLI, antibody on AHC sensor, antigen as analyte. For orientation: Biolayer interferometry detects binding as a change in optical thickness at a sensor tip.
Turning to B1, the Kd was 13.3 nM, the koff worked out at 0.00297 s⁻¹ and the kon was found to be 223000 M⁻¹ s⁻¹.
The corresponding values for B2 are 4.16 nM, 0.0018 s⁻¹ and 433000 M⁻¹ s⁻¹.
The corresponding values for B3 are 5.16 nM, 0.00187 s⁻¹ and 363000 M⁻¹ s⁻¹.
In the same order, the values of B4 are 4.48 nM, 0.00179 s⁻¹ and 398000 M⁻¹ s⁻¹.
On to B5, for which the Kd was found to be 4.52 nM, the koff was determined as 0.00254 s⁻¹ and the kon was 562000 M⁻¹ s⁻¹.

The next experiment addresses T2, recombinant human tumor antigen HER2 (ERBB2, ACRO systems, HE2-H5212) (human, UniProt P04626 23-652).
T2 construct: Bought
The experiment in a line: BLI, antibody on AHC sensor, antigen as analyte.
For the molecule B1, the Kd turned out to be 37.5 nM, the koff is 0.00693 s⁻¹ and the kon is 185000 M⁻¹ s⁻¹.
In the same order, the values of B2 are 20.7 nM, 0.00455 s⁻¹ and 219000 M⁻¹ s⁻¹.
In the same order, the values of B3 are 16.3 nM, 0.00356 s⁻¹ and 218000 M⁻¹ s⁻¹.
For the molecule B4, the Kd turned out to be 15.4 nM, the koff amounted to 0.00383 s⁻¹ and the kon worked out at 249000 M⁻¹ s⁻¹.
In the same order, the values of B5 are 38.9 nM, 0.00888 s⁻¹ and 228000 M⁻¹ s⁻¹.

The target in a further experiment is T3, recombinant human protein CD3ε/δ (ACRO systems, CDD-H52W1) (human, UniProt P07766 23-126; P04234 22-105).
T3 construct: Bought heterodimer
T3 sequence (P07766 23-126, stated change not applied, chain 1 of 2): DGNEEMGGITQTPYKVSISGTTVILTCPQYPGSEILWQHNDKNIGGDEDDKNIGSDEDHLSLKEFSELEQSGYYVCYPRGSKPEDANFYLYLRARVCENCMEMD
T3 sequence (P04234 22-105, stated change not applied, chain 2 of 2): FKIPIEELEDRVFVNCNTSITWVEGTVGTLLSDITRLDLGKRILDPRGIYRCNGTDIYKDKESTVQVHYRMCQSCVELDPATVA
The experiment in a line: BLI, antibody on AHC sensor, antigen as analyte.
With B1, the Kd was 1.3 nM, the koff was determined as 0.000402 s⁻¹ and the kon was 309000 M⁻¹ s⁻¹.
The corresponding values for B2 are 0.351 nM, 6.18e-05 s⁻¹ and 176000 M⁻¹ s⁻¹.
Consider B3, for which the Kd is 0.379 nM, the koff worked out at 8.4e-05 s⁻¹ and the kon amounted to 222000 M⁻¹ s⁻¹.
The corresponding values for B4 are 0.686 nM, 0.000127 s⁻¹ and 186000 M⁻¹ s⁻¹.
In the same order, the values of B5 are 1.41 nM, 0.000516 s⁻¹ and 367000 M⁻¹ s⁻¹.
